We go through 2 molecules from patent US20100233157A1 (published 2010).

One may read the EC50 (read off the curve) as the midpoint of the concentration-response curve.

In assay [1] the target is T1, Human Fas (CD95) on the cell surface (human, UniProt P25445 26-335).
T1 sequence: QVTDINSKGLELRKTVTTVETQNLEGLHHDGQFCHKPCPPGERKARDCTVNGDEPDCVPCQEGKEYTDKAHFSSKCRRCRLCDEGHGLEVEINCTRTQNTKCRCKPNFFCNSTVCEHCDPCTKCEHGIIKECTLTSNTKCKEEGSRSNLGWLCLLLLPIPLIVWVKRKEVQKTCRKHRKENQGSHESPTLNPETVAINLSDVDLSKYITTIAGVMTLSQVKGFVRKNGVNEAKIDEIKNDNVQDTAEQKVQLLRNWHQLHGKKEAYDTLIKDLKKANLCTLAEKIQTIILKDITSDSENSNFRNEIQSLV
As to the kind of experiment: cell-based or functional assay.

In assay [2] the target is T1, Human Fas (CD95) on the cell surface. As to the kind of experiment: flow cytometry on Jurkat cells, FITC anti-human IgG secondary, geometric MFI after background subtraction. The method, then: (§1) Binding of F45D9-γ1 and F45D9-γ4 to the surface of Fas expressing Jurkat and SKW6.4 cells (from ATCC, Jurkat, clone E6-1, ATCC-TIB-152, Human T Leukemia cell line); SKW6.4 cells, ATCC-TIB-215, Human B lymphoblastoid cell line) was explored by immunofluorescence staining and flow cytometry analysis. Cells were cultured in RPMI 1640 medium (GIBCO, Cat. 3105205) supplemented with 2 mM glutamax (GIBCO), 100 UI/mL penicillin, 100 μg/mL streptomycin (Sigma) and 5-10% fetal bovine serum (GIBCO), at 37° C. and 5% CO₂. After washing in PBS Jurkat or SKW6.4 cells (0.2×10⁶ cells/well) were incubated in staining buffer (PBS/1% FBS) containing F45D9-γ1, F45D9-γ4 or human IgG control antibodies (Human IgG1, kappa, Sigma, Cat. I5154 or Human IgG4, kappa, Sigma, Cat. I4639) in a 96-well U-bottom plate for 30 min on ice, in a 100 ul/well volume. Cells were then washed once with staining buffer, and further incubated for 30 min on ice with 1:30 dilution of FITC-conjugated rabbit F(ab′)₂ anti-human IgG (DakoCytomation Cat. F0056). After washing and fixing with 1% formaldehyde in PBS cells were analyzed in a FACScan (Becton Dickinson, Mountain View, Calif.). The reactivity of F45D9-γ1 and F45D9-γ4 to the surface of Jurkat cells was quantified and Geometric Mean Fluorescence Intensity (MFI) after background subtraction (FIG. 1A) and histograms (FIG. 1B) are shown. […]
(In general: Flow cytometry measures light scatter and fluorescence of single cells or particles in a stream.)

Assay [3] shares this target. As to the kind of experiment: flow cytometry on SKW6.4 cells, FITC anti-human IgG secondary, geometric MFI after background subtraction. How it is done: as §1
Assay [4] deals with T2, Chimpanzee Fas on the cell surface (chimpanzee, UniProt K6ZIR5 26-335).
T2 construct: also called Fas on chimpanzee B cell line
T2 sequence: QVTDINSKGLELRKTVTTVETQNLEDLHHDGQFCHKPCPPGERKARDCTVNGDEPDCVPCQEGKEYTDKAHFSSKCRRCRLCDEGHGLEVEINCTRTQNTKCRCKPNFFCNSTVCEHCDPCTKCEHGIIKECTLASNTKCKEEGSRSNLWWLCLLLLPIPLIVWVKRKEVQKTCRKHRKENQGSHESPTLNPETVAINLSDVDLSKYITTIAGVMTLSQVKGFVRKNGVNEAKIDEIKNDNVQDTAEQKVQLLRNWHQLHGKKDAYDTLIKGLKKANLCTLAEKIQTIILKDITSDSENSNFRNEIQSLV
As to the kind of experiment: flow cytometry on chimpanzee cells.

For assay [5], the target named is T3, Recombinant human soluble Fas receptor (PeproTech, Cat. 310-20) (human, UniProt P25445 17-173).
T3 construct: Bought soluble form; also called sFas; rFas
T3 sequence (looked up): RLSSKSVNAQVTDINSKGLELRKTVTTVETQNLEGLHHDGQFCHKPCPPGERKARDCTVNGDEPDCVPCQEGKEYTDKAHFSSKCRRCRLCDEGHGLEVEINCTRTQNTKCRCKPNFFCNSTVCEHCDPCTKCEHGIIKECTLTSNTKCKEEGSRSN
As to the kind of experiment: SPR (BIAcore 3000), soluble Fas immobilized on CM5 chip, antibody as analyte, bivalent analyte fit. How it is done:
The interaction of F45D9 mAb's (γ-γ1 and γ4-isotypes) with immobilized soluble human Fas receptor was monitored by surface plasmon resonance detection using a BIAcore 3000 instrument. Recombinant human soluble Fas receptor (srFas) (PeproTech, cat. 310-20) was immobilized (concentration of 5 ug/ml in immobilization buffer: 10 mM sodium acetate pH 5.0) onto a CM5 sensor chip (BIAcore BR-1001-14) using an Amine Coupling kit (BIAcore, Cat. BR-1000-50), at a surface density of […] resonance units (RU). Deactivation of excess reactive groups on the chip surface was done by adding 1.0 M ethalonamine hydrochloride (pH 8.5). F45D9 mAb's-γ1 mAb were passed over the surface in equilibrium binding experiments at concentrations ranging from […] at a flow rate of 30 ul/min. Dilutions and binding experiments were conducted in 0.01 M HEPES (pH 7.4), 0.15 M NaCl, 3 mM EDTA, and 0.005% P-20 (BIAcore surfactant, BR-1001-88). Between each cycle 100 mM HCl was used to regenerate the surfaces at a flow rate 30 ul/min. KA and KD of F45D9 mAb's were-γ1 mAb was determined by fitting bivalentusing BIAcore models (BIAevaluation).
(In general: In SPR one partner is held on a chip, and binding of the other changes the refractive index at the surface.)

B1: F45D9-γ1 F(ab′)2 fragment (other)
VH: QVQLQQWGAGLLKPSETLSLICAVYGGSFSTYYWTWIRQPPGKGLEWIGEINHRGTTNYSPSLKSRVTISVDTSKNHISLNLTSVTAADTALYYCARGLLWIGEGDYGLDVWGQGTTVTVSS
VL: DIQMTQSPSSLSASVGDRVTITCRASQGIRRWLAWYQQKPEKAPKSLIYAASSLQSGVPSRFSGSGSGTDFTLTISSLQPEDFATYYCQQYNSYPYTFGQGTKLEIKR
Regarding B1, the “share of binding capacity on Jurkat cells at which complete blocking of FasL-induced apoptosis is achieved” value in assay [1] was not below 12.5%.

B2: F45D9-γ4 mAb (recombinant human mAb T19/B5-1F9, gamma-4 isotype) (antibody, V domains shown)
VH: QVQLQQWGAGLLKPSETLSLICAVYGGSFSTYYWTWIRQPPGKGLEWIGEINHRGTTNYSPSLKSRVTISVDTSKNHISLNLTSVTAADTALYYCARGLLWIGEGDYGLDVWGQGTTVTVSS
VL: DIQMTQSPSSLSASVGDRVTITCRASQGIRRWLAWYQQKPEKAPKSLIYAASSLQSGVPSRFSGSGSGTDFTLTISSLQPEDFATYYCQQYNSYPYTFGQGTKLEIKR
notes: Whole human IgG4 (γ4P allotype vector pIESRαγ4P) with human kappa light chain, made in CHO DG44 cells; also called IgG4; T19/L22/B5-1F9
Regarding B2, the “EC50 (read off the curve)” value in assay [2] is approximately 0.6 µg/mL. Moreover, in assay [3], the concentration giving a half-maximal response (EC50 (read off the curve)) is approximately 0.7 µg/mL. The binding result in assay [4] is “binds”. In assay [1], the “IC50 of inhibition of rhFasL-induced apoptosis in SKW6.4 cells (Annexin-V/PI, flow cytometry)” value stood at 0.2 nM; the “IC50 of inhibition of rhFasL-induced apoptosis in activated human T cells (Annexin-V/PI, flow cytometry)” value turned out to be 0.02 nM; the “share of binding capacity on Jurkat cells at which complete blocking of FasL-induced apoptosis is achieved” value was not below 12.5%. For the same molecule, in assay [5], the Kd was determined as 0.0587 nM.
